The target in test [1] is T1, human GPC2 (R&D systems, cat no 2304-GP) (human, UniProt Q8N158 24-554, limits assumed).
T1 construct: Bought
T1 sequence (looked up): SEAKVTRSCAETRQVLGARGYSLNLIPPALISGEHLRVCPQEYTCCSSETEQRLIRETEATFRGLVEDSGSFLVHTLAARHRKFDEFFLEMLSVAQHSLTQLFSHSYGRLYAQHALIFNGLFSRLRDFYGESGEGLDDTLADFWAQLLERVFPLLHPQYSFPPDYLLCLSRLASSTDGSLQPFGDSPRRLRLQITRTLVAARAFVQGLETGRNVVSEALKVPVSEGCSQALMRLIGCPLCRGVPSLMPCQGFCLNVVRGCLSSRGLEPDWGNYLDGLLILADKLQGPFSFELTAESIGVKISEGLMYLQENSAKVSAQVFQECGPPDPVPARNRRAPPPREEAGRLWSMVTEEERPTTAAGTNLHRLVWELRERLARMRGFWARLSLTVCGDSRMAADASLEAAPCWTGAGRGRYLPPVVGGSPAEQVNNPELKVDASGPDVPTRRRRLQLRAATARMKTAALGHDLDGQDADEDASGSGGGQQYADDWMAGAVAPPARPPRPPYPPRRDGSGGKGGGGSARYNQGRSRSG
The test can be described thus: ELISA, GPC2 coated at 2 ug/mL. On the procedure:
Human GPC1 (R&D systems, cat no 4519-GP), human GPC2 (R&D systems, cat no 2304-GP), human GPC3 (R&D systems, cat no 2119-GP), human Glypican-5 (R&D systems, cat no 2607-G5) and human Glypican-6 (R&D systems, cat no 2845-GP) were directly coated overnight at 4° C. (2 μg/mL, 1×PBS buffer) on a 384-well HB SpectraPlate (PerkinElmer). The following day the plate was washed 6 times (AquaMax microplate washer, Molecular devices) and blocked with 1×PBS+1% Casein for 2 hours at room temperature. […] After 6 final wash steps the es(HS)TMB substrate (SDT) was added and the reaction stopped by addition of 1 M HCl after 10 minutes. The absorbance of the plate was measured at wavelengths 450 and 620 nm on the Clariostar instrument (BMG LABTECH) and the OD₄₅₀-OD₆₂₀ calculated and plotted for data analysis.

In test [2] the target is T2, human GPC3 on tumor cell lines (HepG2, Huh-7, NCI-H661, MKN-45, NCI-H23, BxPC-3, NCI-H292) (human, UniProt P51654 25-554).
T2 construct: Endogenous GPC3 of human cancer cell lines; also called GPC3 on HepG2; GPC3 on Huh-7
Kind of test: flow cytometry on Huh-7 cells. (A flow cytometer gives signals particle by particle.)

Test [3] has as its target T3, human GPC3 expressed on CHO Flp-In cells (human, UniProt P51654 25-554).
T3 construct: On cells; Q25-R358, S359-H580; also called hGPC3 CHO; CHO huGPC3
The test can be described thus: flow cytometry on cells expressing GPC3; upper end tied by Table 21 to CHO human GPC3.

The target of test [4] is T4, TCRab on primary cyno T cells (cynomolgus).
T4 construct: whole, on cells; also called Primary cy T cells; cyno TCR
The test can be described thus: competition flow cytometry on cyno T cells, competitor T017000623 at EC30 (5E-08 M). On the procedure:
T cells (human T cells obtained as described in Example 3 and cyno T cells purchased from LPT laboratory, Germany) were thawed and counted on the day of the assay and diluted to a concentration of 1E+06 cells/mL, before adding 75 μL to the wells of a V-bottom 96-well plate (Greiner, cat no 651180). Cells were washed once with cold FACS buffer, before adding 25 μL Nb and 25 μL competitor to the wells. […] Cells were resuspended and plates were incubated at 4° C. for 90 minutes, after which plates were washed twice in cold FACS buffer. Cells were resuspended in 50 μl 1/1000 diluted Monoclonal ANTI-FLAG® M2 (Sigma Aldrich, cat no F1804) in FACS buffer and incubated at 4° C. for 30 minutes. Plates were washed twice in cold FACS buffer. […] Plates were washed twice in cold FACS buffer. Cells were resuspended in 55 μL 1/1000 diluted Propidium Iodide (Sigma-Aldrich, cat no P4170) in FACS buffer before acquiring data on the MACSQuant X (Miltenyi biotec).

Test [5] concerns the target T5, cyno TCRab, in house produced (extracellular domains fused to a zipper peptide) (cynomolgus).
T5 construct: Numbering of the four differences is not explained; not shown: variable domains, if any; any residues beyond C131 of the beta chain
T5 alpha: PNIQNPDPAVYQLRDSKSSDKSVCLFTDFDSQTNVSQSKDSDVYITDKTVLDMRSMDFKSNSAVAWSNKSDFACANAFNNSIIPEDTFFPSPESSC
T5 beta: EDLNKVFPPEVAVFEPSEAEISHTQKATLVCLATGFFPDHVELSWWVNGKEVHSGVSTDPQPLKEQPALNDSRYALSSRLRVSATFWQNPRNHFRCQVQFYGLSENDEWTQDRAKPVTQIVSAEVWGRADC
Kind of test: SPR ProteOn XPR36, TCRab immobilized by amine coupling, 1:1 model. The procedure:
Recombinant TCR proteins were immobilized on a GLC Sensor Chip (Biorad) via amine coupling, using EDC and NHS chemistry (running buffer: HBS-EP+, pH 7.4). Purified ISVDs were injected for 2 minutes (flow rate 45 μL/min) at different concentrations (between 0.2 nM and 200 nM) and dissociation was followed for 900 s. Regeneration was performed by injecting 3 M MgCl₂ for 3 minutes (flow rate 90 μL/min). Data was double referenced by subtracting a reference ligand lane and a blank buffer injection. Processed sensorgrams were analyzed based on the 1:1 interaction model (Langmuir binding model) using ProteOn Manager 3.1.0 (Version 3.1.0.6) software.

The target in test [6] is T2, human GPC3 on tumor cell lines (HepG2, …). Kind of test: cell-based or functional assay.

B1: A022600424 (other)
chain: DVQLVESGGGVVQPGGSLRLSCVASGYVHKINFYGWYRQAPGKEREKVAHISIGDQTDYADSAKGRFTISRDESKNTVYLQMNSLRPEDTAAYYCRALSRIWPYDYWGQGTLVTVSSGGGGSEVQLVESGGGVVQPGGSLRLSCAASGFTFSSFAMTWVRRPPGKGLEWVATITNKGVTSYADSVKGRFTISRDNAKNTLYLQMNSLRPEDTALYICANARRTGPRAPTDIGSYRGQGTLVTVSSGGGGSGGGSEVQLVESGGGVVQPGGSLRLSCAASGSIFRSVFSSSTMEWYRQAPGKKRELVARIAPGEGTYYGALYADSVKGRFTISRDNAKNTVYLQMNSLRPEDTALYYCASGVAWGQGTLVTVSSGGGGSGGGSEVQLVESGGGVVQPGGSLRLSCAASGFTFRSFGMSWVRQAPGKGPEWVSSISGSGSDTLYADSVKGRFTISRDNSKNTLYLQMNSLRPEDTALYYCTIGGSLSRSSQGTLVTVSSA
notes: Trispecific tetravalent ISVD (VHH) T-cell engager: anti-TCR, two anti-GPC3 (biparatopic), anti-albumin; also called TCE01-5GS-A022600351-9GS-A022600314-9GS-ALB23002-A
In general, EC50 refers to the concentration that produces a half-maximal response. Low readings indicate a more potent agent, high ones a less potent agent. By IC50 is commonly meant the midpoint of a concentration-inhibition curve. A higher IC50 goes with weaker potency in that assay. By Kd is commonly meant the constant that tells how readily two partners part at equilibrium. Low readings indicate tighter binding, high ones weaker binding. Turning to B1, the binding result in test [1] is listed as “no binding”. In test [2], this molecule had an EC50 of 1.25 nM. In test [3], this molecule returned an EC50 of 1 to 2 nM. In test [4], the IC50 was determined as 250 nM. Besides, the affinity in test [5], expressed as Kd, was 5.4 nM. Further, in test [6], the “IC50 (M) BxPC-3, xCELLigence human TDC assay” value is above 1e-07 M; the “IC50 (M) HepG2, xCELLigence human TDC assay” value was 1.15e-10 M; the “IC50 (M) Huh-7, xCELLigence human TDC assay” value turned out to be 1.16e-10 M; the “IC50 (M) NCI-H23, xCELLigence human TDC assay” value is above 1e-07 M. Further, the “IC50 (M) NCI-H661, xCELLigence human TDC assay” value in test [6] was 1.14e-10 M.

For the origin of these results see patent US20240343823A1 (Ablynx, published 2024).
